We go through ten molecules from patent publication US20060257938A1, “Method of screening for drugs that block ligand binding to a lipid binding protein” (priority 2005, published 2006).

What all share (assay type): binding
Test [1] is described as follows: Probe fluorescence ratio response to oleic acid relative to ADIFAB2. The conditions noted are these: response relative to ADIFAB2. Put shortly:
(§1)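 Fluorescently labeled rat intestinal FABP variants were read at two emission wavelengths, near the unbound maximum (about 420 to 480 nm) and the FFA-bound maximum (about 495 to 580 nm). R = Fλ1/Fλ2 after subtracting probe-free intensity; ΔR = R+agent − R0, normalized to ADIFAB2 (rI-FABP-L72A).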

Test [2] in a line: Probe fluorescence ratio response to linoleic acid relative to ADIFAB2. The following applies: response relative to ADIFAB2. The procedure, abridged: as §1
Test [3] in a line: Probe fluorescence ratio response to linolenic acid relative to ADIFAB2. The following applies: response relative to ADIFAB2. The procedure, abridged: as §1
The nature of test [4]: Probe fluorescence ratio response to palmitoleic acid relative to ADIFAB2. The following applies: response relative to ADIFAB2. The procedure, abridged:
as §1

Test [5] can be described thus: Probe fluorescence ratio response to arachidonic acid relative to ADIFAB2. The conditions noted are these: arachidonic acid; response relative to ADIFAB2. Put shortly: as §1
Test [6] can be described thus: Probe fluorescence ratio response to stearic acid relative to ADIFAB2. The following applies: response relative to ADIFAB2. The procedure, abridged: as §1
Test [7] is described as follows: Probe fluorescence ratio response to palmitic acid relative to ADIFAB2. The following applies: response relative to ADIFAB2. Put shortly:
as §1

B1: 73P 72A 74F (protein, listed as Rattus norvegicus)
chain: AFDGTWKVDRNENYEKFMEKMGINVVKRKLGAHDNLKLTITQEGNKFTVKESSNFRNIDVVFELGVDFAYSAPFGTELTGTWTMEGNKLVGKFKRVDNGKELIAVREISGNELIQTYTYEGVEAKRIFKKE
modifications: PEPTIDE (1)...(131) wild-type rat intestinal fatty acid binding protein
For B1, in test [1], the “DR/DR OA” value was 0.868. Also, the “DR/DR LA” value in test [2] stood at 0.838. The “DR/DR LNA” value in test [3] stood at 1.518. Further, the “DR/DR POA” value in test [4] came to 1.776. The “DR/DR AA” value in test [5] came out at 1.078. In addition, the “DR/DR SA” value in test [6] came to 0.494. In addition, the “DR/DR PA” value in test [7] is 1.278.

B2: 18I 31V 55V 73V 72A (protein, listed as Rattus norvegicus)
chain: AFDGTWKVDRNENYEKFIEKMGINVVKRKLVAHDNLKLTITQEGNKFTVKESSNVRNIDVVFELGVDFAYSAVDGTELTGTWTMEGNKLVGKFKRVDNGKELIAVREISGNELIQTYTYEGVEAKRIFKKE
modifications: PEPTIDE (1)...(131) wild-type rat intestinal fatty acid binding protein
Consider B2, for which the “DR/DR OA” value in test [1] was determined as 0.448. In test [2], the “DR/DR LA” value turned out to be 0.853. Further, in test [3], the “DR/DR LNA” value is reported as 1.179. Besides, the “DR/DR POA” value in test [4] came out at 1.236. In addition, the “DR/DR AA” value in test [5] was 0.632. In test [6], the “DR/DR SA” value was determined as 0.233. Moreover, the “DR/DR PA” value in test [7] was 0.974.

B3: 72G 73F 74N (protein, listed as Rattus norvegicus)
chain: AFDGTWKVDRNENYEKFMEKMGINVVKRKLGAHDNLKLTITQEGNKFTVKESSNFRNIDVVFELGVDFAYSGFNGTELTGTWTMEGNKLVGKFKRVDNGKELIAVREISGNELIQTYTYEGVEAKRIFKKE
modifications: PEPTIDE (1)...(131) wild-type rat intestinal fatty acid binding protein
Turning to B3, the “DR/DR OA” value in test [1] was −0.032. For the same molecule, the “DR/DR LA” value in test [2] amounted to 0.454. Also, in test [3], the “DR/DR LNA” value is listed as 1.367. Besides, in test [4], the “DR/DR POA” value turned out to be 1.499. Moreover, the “DR/DR AA” value in test [5] stood at 0.617. Further, the “DR/DR SA” value in test [6] is −0.043. Moreover, the “DR/DR PA” value in test [7] worked out at 0.456.

B4: 38Y 117A 72A (protein, listed as Rattus norvegicus)
chain: AFDGTWKVDRNENYEKFMEKMGINVVKRKLGAHDNLKYTITQEGNKFTVKESSNFRNIDVVFELGVDFAYSAADGTELTGTWTMEGNKLVGKFKRVDNGKELIAVREISGNELIQTATYEGVEAKRIFKKE
modifications: PEPTIDE (1)...(131) wild-type rat intestinal fatty acid binding protein
Regarding B4, the “DR/DR OA” value in test [1] was 1.976. Further, the “DR/DR LA” value in test [2] is recorded as 1.869. For the same molecule, in test [3], the “DR/DR LNA” value is on record as 1.547. In addition, in test [4], the “DR/DR POA” value came out at 0.839. Moreover, the “DR/DR AA” value in test [5] was determined as 2.216. Moreover, in test [6], the “DR/DR SA” value was determined as 1.201. For the same molecule, in test [7], the “DR/DR PA” value was 0.933.

B5: 18V 31F 55L 72A (protein, listed as Rattus norvegicus)
chain: AFDGTWKVDRNENYEKFVEKMGINVVKRKLFAHDNLKLTITQEGNKFTVKESSNLRNIDVVFELGVDFAYSAADGTELTGTWTMEGNKLVGKFKRVDNGKELIAVREISGNELIQTYTYEGVEAKRIFKKE
modifications: PEPTIDE (1)...(131) wild-type rat intestinal fatty acid binding protein
For the molecule B5, the “DR/DR OA” value in test [1] turned out to be 0.649. In addition, in test [2], the “DR/DR LA” value was found to be 0.996. In addition, the “DR/DR LNA” value in test [3] was found to be 1.180. In addition, in test [4], the “DR/DR POA” value was found to be 1.353. The “DR/DR AA” value in test [5] was found to be 0.921. The “DR/DR SA” value in test [6] is 0.358. For the same molecule, the “DR/DR PA” value in test [7] was 1.035.

B6: 74S 72A 73F (protein, listed as Rattus norvegicus)
chain: AFDGTWKVDRNENYEKFMEKMGINVVKRKLGAHDNLKLTITQEGNKFTVKESSNFRNIDVVFELGVDFAYSAFSGTELTGTWTMEGNKLVGKFKRVDNGKELIAVREISGNELIQTYTYEGVEAKRIFKKE
modifications: PEPTIDE (1)...(131) wild-type rat intestinal fatty acid binding protein
Take B6: the “DR/DR OA” value in test [1] is reported as 0.630. Further, the “DR/DR LA” value in test [2] was determined as 1.035. In test [3], the “DR/DR LNA” value turned out to be 1.433. Besides, in test [4], the “DR/DR POA” value is 2.413. Besides, the “DR/DR AA” value in test [5] was 0.893. The “DR/DR SA” value in test [6] turned out to be 0.337. In addition, in test [7], the “DR/DR PA” value was found to be 1.158.

B7: 38I 74F 72A (protein, listed as Rattus norvegicus)
chain: AFDGTWKVDRNENYEKFMEKMGINVVKRKLGAHDNLKITITQEGNKFTVKESSNFRNIDVVFELGVDFAYSAAFGTELTGTWTMEGNKLVGKFKRVDNGKELIAVREISGNELIQTYTYEGVEAKRIFKKE
modifications: PEPTIDE (1)...(131) wild-type rat intestinal fatty acid binding protein
B7: the “DR/DR OA” value in test [1] was determined as 0.764. The “DR/DR LA” value in test [2] is recorded as 1.162. Further, in test [3], the “DR/DR LNA” value is listed as 1.395. Moreover, in test [4], the “DR/DR POA” value is listed as 2.112. The “DR/DR AA” value in test [5] came out at 0.787. In addition, the “DR/DR SA” value in test [6] was determined as 0.503. The “DR/DR PA” value in test [7] is listed as 1.343.

B8: 74Q 72A 73F (protein, listed as Rattus norvegicus)
chain: AFDGTWKVDRNENYEKFMEKMGINVVKRKLGAHDNLKLTITQEGNKFTVKESSNFRNIDVVFELGVDFAYSAFQGTELTGTWTMEGNKLVGKFKRVDNGKELIAVREISGNELIQTYTYEGVEAKRIFKKE
modifications: PEPTIDE (1)...(131) wild-type rat intestinal fatty acid binding protein
For B8, the “DR/DR OA” value in test [1] is listed as 0.390. Moreover, in test [2], the “DR/DR LA” value is listed as 0.711. Also, the “DR/DR LNA” value in test [3] was 1.025. In test [4], the “DR/DR POA” value was found to be 1.479. Besides, the “DR/DR AA” value in test [5] was 0.465. Moreover, the “DR/DR SA” value in test [6] was 0.177. Further, the “DR/DR PA” value in test [7] amounted to 0.649.

B9: 72E 73V 74A (protein, listed as Rattus norvegicus)
chain: AFDGTWKVDRNENYEKFMEKMGINVVKRKLGAHDNLKLTITQEGNKFTVKESSNFRNIDVVFELGVDFAYSEVAGTELTGTWTMEGNKLVGKFKRVDNGKELIAVREISGNELIQTYTYEGVEAKRIFKKE
modifications: PEPTIDE (1)...(131) wild-type rat intestinal fatty acid binding protein
Regarding B9, the “DR/DR OA” value in test [1] is 0.524. For the same molecule, the “DR/DR LA” value in test [2] was 0.735. The “DR/DR LNA” value in test [3] stood at 0.784. In addition, the “DR/DR POA” value in test [4] is listed as 1.093. For the same molecule, the “DR/DR AA” value in test [5] is 0.478. Also, in test [6], the “DR/DR SA” value turned out to be 0.234. The “DR/DR PA” value in test [7] was determined as 0.736.

B10: 18V 31F 73M 72A (protein, listed as Rattus norvegicus)
chain: AFDGTWKVDRNENYEKFVEKMGINVVKRKLFAHDNLKLTITQEGNKFTVKESSNFRNIDVVFELGVDFAYSAMDGTELTGTWTMEGNKLVGKFKRVDNGKELIAVREISGNELIQTYTYEGVEAKRIFKKE
modifications: PEPTIDE (1)...(131) wild-type rat intestinal fatty acid binding protein
In the case of B10, the “DR/DR OA” value in test [1] was 0.794. For the same molecule, the “DR/DR LA” value in test [2] is given as 1.296. Further, the “DR/DR LNA” value in test [3] was 1.511. Further, the “DR/DR POA” value in test [4] is on record as 1.538. Besides, the “DR/DR AA” value in test [5] is given as 1.014. The “DR/DR SA” value in test [6] was 0.383. The “DR/DR PA” value in test [7] worked out at 1.395.
